From article PMC2773002, “Differential Role of Human Choline Kinase α and β Enzymes in Lipid Metabolism: Implications in Cancer Onset and Treatment” (PLoS ONE, 2009)

Assays:
[1] = substrate: C[N+](C)(C)CCO; assay: Michaelis-Menten kinetics (Km), radiolabelled substrate, extracts of E. coli expressing the recombinant enzyme; format: biochemical, Homo sapiens; conditions: ATP, MgCl2
[2] = substrate: NCCO; assay: as above; format: biochemical, Homo sapiens; conditions: ATP, MgCl2

B1: ChoKβ (choline kinase beta, ChoKβ1) (Homo sapiens) (protein)
chain: AAEATAVAGSGAVGGCLAKDGLQQSKCPDTTPKRRRASSLSRDAERRAYQWCREYLGGAWRRVQPEELRVYPVSGGLSNLLFRCSLPDHLPSVGEEPREVLLRLYGAILQGVDSLVLESVMFAILAERSLGPQLYGVFPEGRLEQYIPSRPLKTQELREPVLSAAIATKMAQFHGMEMPFTKEPHWLFGTMERYLKQIQDLPPTGLPEMNLLEMYSLKDEMGNLRKLLESTPSPVVFCHNDIQEGNILLLSEPENADSLMLVDFEYSSYNYRGFDIGNHFCEWVYDYTHEEWPFYKARPTDYPTQEQQLHFIRHYLAEAKKGETLSQEEQRKLEEDLLVEVSRYALASHFFWGLWSILQASMSTIEFGYLDYAQSRFQFYFQQKGQLTSVHSSS
notes: human ChoKβ1 expressed in E. coli DH5α (extracts)
With B1 the Km [1] was 570 µM and the Km [2] was 2010 µM.
